These results are taken from patent US20150004174A1.

The target of test [1] is cynomolgus monkey PCSK9, V5-6xHis tagged (cynomolgus monkey). The test can be described thus: BIAcore SPR, antibody amine-coupled to CM5 chip, PCSK9 as analyte, pH 7.4.
The target is the same in test [2]. The test can be described thus: KinExA solution equilibrium. (A kinetic exclusion assay measures how much of one partner remains free in solution.)
For test [3] the target is unchanged. The test can be described thus: BIAcore solution equilibrium binding assay, free PCSK9 measured on immobilized 21B12.

B1: 16F12 human IgG4 (antibody, V domains shown)
VH: QVHLVESGGGVVQPGRSLRLSCAASGFTFNSFGMHWVRQAPGKGLEWVALIWSDGSDEYYADSVKGRFTISRDNSKNTLYLQMNSLRAEDTAVYYCARAIAALYYYYGMDVWGQGTTVTVSS
VL: QSVLTQPPSVSAAPGQKVTISCSGSSSNIGNNFVSWYQQLPGTAPKLLIYDYNKRPSGIPDRFSGSKSGTSATLGITGLQTGDEADYYCGTWDSSLSAYVFGTGTRVTVLQ
For B1, the Kd was determined as 870 pM in test [1] and 16 pM in test [2].

B2: 21B12 human IgG4 (from hybridoma) (antibody, V domains shown)
VH: QVQLVQSGAEVKKPGASVKVSCKASGYTLTSYGISWVRQAPGQGLEWMGWVSFYNGNTNYAQKLQGRGTMTTDPSTSTAYMELRSLRSDDTAVYYCARGYGMDVWGQGTTVTVSS
VL: QSALTQPASVSGSPGQSITISCTGTSSDVGGYNSVSWYQQHPGKAPKLMIYEVSNRPSGVSNRFSGSKSGNTASLTISGLQAEDEADYYCNSYTSTSMVFGGGTKLTVLQ
Consider B2, for which the Kd in test [3] is 11 pM; in test [1], 360 pM.

For orientation: Kd means the concentration at which binding is half-saturated.
